From patent US20250298032A1 (INSTITUTE FOR RESEARCH IN BIOMEDICINE, published 2025)

Columns and labels:
CXCL16 N-loop peptide = target: T1, CXCL16 N-loop peptide (human, biotin-Ahx at the N-terminus; amidated at the C-terminus); experiment: ELISA, biotinylated CXCL16 N-loop peptide on neutravidin plate, anti-human IgG-HRP, OD450 nm
T1 construct: Synthetic peptide, captured on Neutravidin-coated ELISA plates
T1 peptide: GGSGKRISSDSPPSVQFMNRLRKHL
Procedure: (§1) To evaluate the antibodies' binding to chemokine peptides, 96-well plates (ThermoFisher, 442404) were coated with 50 μl per well of a 2 μg/ml Neutravidin (Life Technologies, 31000) solution in PBS, overnight at room temperature. Plates were washed 4 times with washing buffer (PBS+0.05% Tween-20 [Sigma-Aldrich]) and incubated with 50 μl per well of a 50 nM biotinylated peptide solution in PBS for 1 h at room temperature. After washing 4 times with washing buffer, plates were incubated with 200 μl per well of blocking buffer (PBS+2% BSA+0.05% Tween-20) for 2 h at room temperature. Plates were then washed 4 times with washing buffer, and serial dilutions of monoclonal antibodies or plasma were added in PBS +0.05% Tween-20 and incubated for 1 h at room temperature. To screen for the presence of anti-chemokine IgGs, plasma samples were assayed (unless otherwise stated) at 1:50 starting dilution followed by 3 fourfold serial dilutions (1:200, 1:800, 1:3200). Monoclonal antibodies were tested at 5 μg/ml starting concentration followed by 11 threefold serial dilutions. Plates were subsequently washed 4 times with washing buffer and incubated with anti-human IgG secondary antibody conjugated to horseradish peroxidase (HRP) (GE Healthcare, NA933) at a 1:5000 dilution in PBS+0.05% Tween-20. Finally, after washing 4 times with washing buffer, plates were developed by the addition of 50 μl per well of the HRP substrate TMB (ThermoFisher, 34021) for 9 min. The developing reaction was stopped with 50 μl per well of a 1 M H₂SO₄ solution, and absorbance was measured at 450 nm with an ELISA microplate reader (BioTek) with Gen5 software. A positive control (broadly reactive plasma from donor CLM70) and a negative control (uninfected participant) samples were included in each experiment. The Area Under the Curve (AUC) was obtained from two independent experiments and plotted with GraphPad Prism.

CXCL13 N-loop peptide = target: T2, CXCL13 N-loop peptide (human, biotin-Ahx at the N-terminus; amidated at the C-terminus); experiment: ELISA, biotinylated CXCL13 N-loop peptide on neutravidin plate, anti-human IgG-HRP, OD450 nm
T2 construct: Synthetic peptide, captured on Neutravidin-coated ELISA plates
T2 peptide: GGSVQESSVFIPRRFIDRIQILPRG
Procedure: as §1

B1: aCXCL16.001 (antibody, human IgG1, V domains shown)
VH: EVQLVESGGGLVKPGESLTLSCVASGYPFANAWMSWVRQAPGKGLEWVGRIKTKSEGETTDYAPLVRGRFTISRDDSKTTVFLQMNSLKTEDTGMYYCTTVFFWGRGTLVTVSS
VL: SYELTQPPSVSVSPGQTARITCSGDALSQQYLFWHQQRPGQAPKVVISKDTERPSGIPERFSGSISGTTGTLTISGVQTEDEADYYCHSTDISDSYWVFGGGTKLTVL
notes: also called anti-CXCL16 N-loop antibody
Q: With B1 as the binder, how does the “EC50 (read off the curve)” value (CXCL16 N-loop peptide) read?
A: Its value is ~0.1 µg/mL.

B2: aCXCL16.002 (antibody, human IgG1, V domains shown)
VH: EVQLVESGGGLSQPGWSLRLSCAASGLTVTRNYMSWVRQAPGKGLEWVSTLWTDGQKFYADSVKGRFTVSRDSYTNTLNLEMSGLRAEDTAVYFCTRDKVVPVRITPDYHYYGMDVWGQGTTVTVSS
VL: DIQLTQSPSFLSASVGDRVTITCRASQGVRRYLAWYQQKPGKAPKFLIYGASSLHTGVPSRFSGGGSDTEFTLTISNLQTEDFATYYCQQLDTYPLTFGGGTKVEIK
notes: as for B1
Q: Does B2 bind (CXCL16 N-loop peptide)?
A: Result: binds

B3: aCXCL16.003 (antibody, human IgG1, V domains shown)
VH: EVQLVQSGAEVKKPGESLKISCKGSGYSFTSYWIGWVRQMPGKGLEWMGIIYPGDSDTRYSPSFQGQVTISADKSISTAYLQWSSLKASDTAMYYCARLHGDLYYFDYWGQGTLVTVSS
VL: QSVLTQEASVSGTVGQKVTLSCTGNSNNVGSYAVGWYQQISHGAPKTVMFGNSLPSGIPDRFSGSKSGTTASLTISGLQPEDEADYYCSTWDYSLSAQVFGGGTKLTVL
notes: as for B1
Q: Which “EC50 (read off the curve)” value (CXCL16 N-loop peptide) does the source give for B3 here?
A: The value was ~0.2 µg/mL.

B4: aCXCL13.001 (antibody, human IgG1, V domains shown)
VH: QVQLVESGGGLVKPGGSLRLSCAASGFMFSDYYMSWIRQAPGKGLEWISYIGNSDASTFYADSVKGRFAISRDNAKNLLFLQMNSLRAEDTAVYYCARDGYSHSRGYSYGRKDAFDIWGRGTMVTVSS
VL: EIVLTQSPATLSLSPGERATLSCRASQSVSSYLAWYQQKPGQAPRLLIYAASQRATGIPARFSGTGSGTDFTLTISSLEPEDSAVYYCQQRGNWPGTFGQGTKVEIK
notes: also called anti-CXCL13 N-loop antibody
Q: Does B4 bind (CXCL13 N-loop peptide)?
A: Result: binds

B5: aCXCL13.002 (antibody, V domains shown)
VH: EVQLVESGGGLVKPGGSLRLSCAASGFTFSSYSMNWVRQAPGKGLEWVSSISSSSSYIYYADSVKGRFTISRDNAKNSLYLQMNSLRAEDTAVYYCARDGIYDYAPVDYWGQGTLVTVSS
VL: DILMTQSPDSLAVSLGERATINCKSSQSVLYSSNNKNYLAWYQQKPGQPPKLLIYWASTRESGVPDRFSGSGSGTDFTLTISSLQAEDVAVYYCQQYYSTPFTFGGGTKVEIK
notes: as for B4
Q: Does B5 bind (CXCL13 N-loop peptide)?
A: Result: binds
